Experimental data reported in publication PMC5906480, “Tau Antibody Structure Reveals a Molecular Switch Defining a Pathological Conformation of the Tau Protein” (Scientific Reports, 2018).
“Also recorded” adds a separate entry of the source.

What was measured:
[1] = tested on: non-phosphorylated peptide; experiment: ELISA, non-phosphorylated peptide; format: binding; conditions: plate coated with peptide 2 μg/mL; C5.2 IgG 8 μg/mL–0.05 ng/mL, 1 h room temperature; 405 nm
Method: (§1) Immulon 4 HBX (extra high-binding) 96-well microtiter plates (Thermo Scientific) were coated with the same peptide used for crystallization diluted to 2 μg/mL in phosphate-buffered saline (PBS) and left overnight at 4 °C (Table 1). Plates were then washed three times in PBS-T (PBS containing 0.05% Tween-20) and blocked in 5% non-fat milk and 3% bovine serum albumin in PBS for 2 hours at room temperature. Plates were subsequently washed 3 times in PBS-T before C5.2 was serially diluted (8 μg/mL–0.05 ng/mL) in PBS and incubated for 1 hour at room temperature. Then, alkaline phosphatase-conjugated goat anti-mouse IgG (Southern Biotech) was diluted 1:2000 in PBS and incubated for 30 minutes at room temperature. Finally, bound IgG was analyzed by addition of p-nitrophenyl phosphate substrate (Thermo Scientific) and measurement at 405 nm on a VersaMax Microplate Reader.
(§2) In order to evaluate the ability of C5.2 to exclusively target the phosphorylated epitope, we performed an enzyme-linked immunosorbent assay (ELISA). The peptides used in the assay are the same peptides used for crystallization and diluted to a concentration of 2 μg/mL (Table 1). Binding curves were generated from ELISA data by maintaining plate-bound peptide concentrations and serially diluting C5.2 IgG (Fig. 1c).

pS396/pS404 peptide = experiment: ELISA, pS396/pS404 peptide; format: binding; conditions: plate coated with peptide 2 μg/mL; C5.2 IgG 8 μg/mL–0.05 ng/mL, 1 h room temperature; 405 nm
Method: as §1, §2

pS404 peptide = experiment: ELISA, pS404 peptide; format: binding; conditions: plate coated with peptide 2 μg/mL; C5.2 IgG 8 μg/mL–0.05 ng/mL, 1 h room temperature; 405 nm
Method: as §1, §2

[2] = tested on: normal tau in the soluble tau fraction (S1) from non-transgenic littermates; experiment: Western and dot blot, non-transgenic littermate brain; format: binding, mouse; conditions: C5.2 1 µg/mL overnight 4 °C, 24 weeks old non-tg mice
Excerpt: rTg4510, tTA and non-Tg littermate F1 mice were bred at Taconic, Denmark. Mice expressing the tTA activator transgenes were maintained on 129S6 background strain (Taconic) and mutant tau responder mice were maintained in the FVB/NCrl background strain (Taconic). Mice were screened by PCR using the following primer pairs [NT] and [NT] for the tTA activator transgene and [NT] and [NT] for the mutant tau responder transgene. rTg4510, tTA and non-Tg littermates were group-housed (5 animals/cage) and received water and food ad libitum (Brogaarden, Denmark) as well as environmental enrichment. The light/dark cycle was 12 hours; room temperature was 21 ± 2 °C and a relative humidity of 55% ± 5%. All animal experiments were performed in accordance with the European Communities Council Directive #86/609, the directives of the Danish National Committee on Animal Research Ethics, and Danish legislation on experimental animals (license no. 2014-15-0201-00339). Mice were euthanized by cervical dislocation. Brains were quickly removed, weighed and divided sagittally down the midline to yield two hemispheres. […] Tau and pTau levels were assessed in the samples using 1 μg/mL C5.2 overnight at 4 °C. A secondary fluorophore conjugated IgG antibody was used (IRDye 680 Goat anti-mouse, LICOR biosciences) and the signal was quantified using Odyssey CLx and Image studio software (LI-COR biosciences). […]

B1: C5.2: novel mouse monoclonal antibody that targets the pS396 tau epitope region (antibody, V domains shown)
VH: QVQLQQSDAELVKPGASVKISCKASGYTFTDRTIHWVKQRPEQGLEWIGYIYPGDDSTKYNDMFKAKATLTADKSSNTAYMQLNSLTSDDSAVYFCARRGTMDYWGQGTSVTVSS
VL: DVQMIQSPSSLSASLGDIVTMTCQASQDTSINLNWFQQKPGKAPKLLIYGASNLEDGVPSRFSGSRYGTDFTLTISSLEDEDMATYFCLQHTYLPFTFGSGTKLEIK
Recognition of peptide (ELISA) [1]: lack of recognition; also recorded: does not bind | Association with peptide (ELISA) (pS396/pS404 peptide): strong association | Recognition of peptide (ELISA) (pS404 peptide): lack of recognition; also recorded: does not bind | Detection of normal tau (S1) [2]: not detected
